The values below come from the supplement of paper PMC10065799, “High-throughput profiling of sequence recognition by tyrosine kinases and SH2 domains using bacterial peptide display” (eLife, 2023).

One data set relates to AncSZ. As to the kind of experiment: phosphorylation enrichment, bacterial display (enrichment ratio); higher = better substrate or ligand; peptides without Tyr show the background.
For another data set, the target named is EPHB1 (UniProt P54762). Described as above.
The target of another data set is EPHB2 (UniProt P29323). The description is as above.
In the next data set the target is FGFR1 (UniProt P11362). The description is as above.
The target of a further data set is FGFR3 (UniProt P22607). Described as above.
For a further data set, the system named is Fer (mouse). The description is as above.
For another data set, the target named is Fes (UniProt P07332). The description is as above.
The next data set concerns the target Fyn (UniProt P06241). The data set is described as above.
The next data set deals with Hck (UniProt P08631). The data set is described as above.
Another data set has as its target Jak2 (UniProt O60674). The description is as above.
A further data set has as its target MERTK (UniProt Q12866). The data set is described as above.
In a further data set the test system is c-Abl (mouse). The description is as above.
The next data set deals with c-Src. The data set is described as above.
A further data set deals with Grb2 SH2 (UniProt P62993). As to the kind of experiment: SH2 binding enrichment of the phosphorylated peptide, bacterial display (enrichment ratio); higher = better substrate or ligand; peptides without Tyr show the background.
The next data set has as its target SHP2-C SH2. The data set is described as above.
A further data set concerns the target c-Src SH2. Described as above.
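Throughout, for SH2 binding enrichment of the phosphorylated peptide, bacterial display: peptide library displayed on the E. coli surface as eCPX fusions, selected cells deep-sequenced, score is each peptide's frequency after selection divided by its frequency in the input.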
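Throughout, for phosphorylation enrichment, bacterial display: 11-residue human phosphosite peptides and single-mutation variants displayed on the E. coli surface, counted by deep sequencing, each peptide's frequency after selection divided by its frequency in the unselected input library; frequency after pTyr selection over input frequency; kinase dosed for 20-30% of maximal phosphorylation in three min.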

Sequence of Fyn (P06241 whole entry, looked up): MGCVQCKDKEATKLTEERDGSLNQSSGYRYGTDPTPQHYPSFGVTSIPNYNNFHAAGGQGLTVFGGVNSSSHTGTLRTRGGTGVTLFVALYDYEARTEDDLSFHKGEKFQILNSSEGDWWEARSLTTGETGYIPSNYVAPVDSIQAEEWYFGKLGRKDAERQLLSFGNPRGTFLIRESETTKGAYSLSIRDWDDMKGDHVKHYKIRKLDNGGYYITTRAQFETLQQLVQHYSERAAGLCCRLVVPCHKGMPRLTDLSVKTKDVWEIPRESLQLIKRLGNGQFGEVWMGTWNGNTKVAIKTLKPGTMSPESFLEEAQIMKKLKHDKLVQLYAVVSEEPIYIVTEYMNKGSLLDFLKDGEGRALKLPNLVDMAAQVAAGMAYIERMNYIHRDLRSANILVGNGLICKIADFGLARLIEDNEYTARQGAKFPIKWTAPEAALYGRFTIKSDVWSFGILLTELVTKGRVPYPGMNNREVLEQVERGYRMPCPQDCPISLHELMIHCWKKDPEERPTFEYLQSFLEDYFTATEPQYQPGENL
Sequence of Fes (P07332 whole entry, looked up): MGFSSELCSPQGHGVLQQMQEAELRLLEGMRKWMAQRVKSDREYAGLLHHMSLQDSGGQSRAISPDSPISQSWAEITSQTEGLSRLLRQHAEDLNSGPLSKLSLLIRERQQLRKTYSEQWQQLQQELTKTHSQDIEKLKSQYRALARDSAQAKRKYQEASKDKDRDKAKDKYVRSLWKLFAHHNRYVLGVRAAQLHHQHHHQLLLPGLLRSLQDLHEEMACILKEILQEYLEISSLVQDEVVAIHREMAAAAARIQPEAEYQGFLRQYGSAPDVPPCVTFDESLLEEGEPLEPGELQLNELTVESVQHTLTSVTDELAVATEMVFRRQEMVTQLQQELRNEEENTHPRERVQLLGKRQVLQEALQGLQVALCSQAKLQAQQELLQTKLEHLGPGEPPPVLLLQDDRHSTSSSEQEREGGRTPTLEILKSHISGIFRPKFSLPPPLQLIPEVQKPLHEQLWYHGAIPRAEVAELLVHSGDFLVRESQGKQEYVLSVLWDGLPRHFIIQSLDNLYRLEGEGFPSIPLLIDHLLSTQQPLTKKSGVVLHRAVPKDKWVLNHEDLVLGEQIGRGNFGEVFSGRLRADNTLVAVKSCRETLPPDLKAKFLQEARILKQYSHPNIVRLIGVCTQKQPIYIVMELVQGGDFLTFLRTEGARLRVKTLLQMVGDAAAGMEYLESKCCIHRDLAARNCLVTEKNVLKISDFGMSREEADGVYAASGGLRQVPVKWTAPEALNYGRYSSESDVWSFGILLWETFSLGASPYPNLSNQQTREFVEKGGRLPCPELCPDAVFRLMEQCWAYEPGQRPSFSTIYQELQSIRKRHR
Sequence of FGFR3 (P22607 whole entry, looked up): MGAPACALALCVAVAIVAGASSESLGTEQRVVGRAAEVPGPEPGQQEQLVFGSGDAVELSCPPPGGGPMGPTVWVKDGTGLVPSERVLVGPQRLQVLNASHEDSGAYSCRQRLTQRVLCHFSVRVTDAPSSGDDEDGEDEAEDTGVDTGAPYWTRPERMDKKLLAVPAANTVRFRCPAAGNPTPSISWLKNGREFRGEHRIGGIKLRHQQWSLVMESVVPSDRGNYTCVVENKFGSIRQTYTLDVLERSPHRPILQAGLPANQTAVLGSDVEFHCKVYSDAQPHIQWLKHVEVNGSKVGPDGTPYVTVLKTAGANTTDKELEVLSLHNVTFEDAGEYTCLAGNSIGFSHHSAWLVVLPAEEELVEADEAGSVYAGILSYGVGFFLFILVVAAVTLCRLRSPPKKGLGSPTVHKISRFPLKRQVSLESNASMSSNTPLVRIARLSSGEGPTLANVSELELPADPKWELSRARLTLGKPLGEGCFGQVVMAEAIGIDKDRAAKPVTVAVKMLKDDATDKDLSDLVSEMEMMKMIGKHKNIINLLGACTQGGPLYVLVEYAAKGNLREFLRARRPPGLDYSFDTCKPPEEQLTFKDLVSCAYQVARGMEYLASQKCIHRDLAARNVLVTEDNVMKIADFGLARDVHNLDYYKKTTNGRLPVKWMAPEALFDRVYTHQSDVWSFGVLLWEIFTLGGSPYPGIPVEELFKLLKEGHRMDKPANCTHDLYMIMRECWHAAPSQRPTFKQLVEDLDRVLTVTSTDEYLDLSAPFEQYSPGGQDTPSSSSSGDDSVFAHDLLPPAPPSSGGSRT
Sequence of Hck (P08631 whole entry, looked up): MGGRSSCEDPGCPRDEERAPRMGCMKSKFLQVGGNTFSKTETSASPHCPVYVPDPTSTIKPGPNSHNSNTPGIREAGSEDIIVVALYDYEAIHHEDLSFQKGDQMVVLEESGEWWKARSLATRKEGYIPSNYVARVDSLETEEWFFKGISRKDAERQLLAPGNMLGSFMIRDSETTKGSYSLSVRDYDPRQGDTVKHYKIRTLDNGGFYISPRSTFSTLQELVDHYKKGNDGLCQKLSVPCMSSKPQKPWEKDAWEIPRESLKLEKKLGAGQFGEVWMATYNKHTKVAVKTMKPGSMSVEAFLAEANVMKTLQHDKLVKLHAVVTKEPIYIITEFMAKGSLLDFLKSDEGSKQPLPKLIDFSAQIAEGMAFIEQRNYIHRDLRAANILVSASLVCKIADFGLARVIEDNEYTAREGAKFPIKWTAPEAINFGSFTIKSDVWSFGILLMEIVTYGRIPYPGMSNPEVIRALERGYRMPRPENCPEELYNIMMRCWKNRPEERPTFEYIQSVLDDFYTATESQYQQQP
Sequence of EPHB1 (P54762 whole entry, looked up): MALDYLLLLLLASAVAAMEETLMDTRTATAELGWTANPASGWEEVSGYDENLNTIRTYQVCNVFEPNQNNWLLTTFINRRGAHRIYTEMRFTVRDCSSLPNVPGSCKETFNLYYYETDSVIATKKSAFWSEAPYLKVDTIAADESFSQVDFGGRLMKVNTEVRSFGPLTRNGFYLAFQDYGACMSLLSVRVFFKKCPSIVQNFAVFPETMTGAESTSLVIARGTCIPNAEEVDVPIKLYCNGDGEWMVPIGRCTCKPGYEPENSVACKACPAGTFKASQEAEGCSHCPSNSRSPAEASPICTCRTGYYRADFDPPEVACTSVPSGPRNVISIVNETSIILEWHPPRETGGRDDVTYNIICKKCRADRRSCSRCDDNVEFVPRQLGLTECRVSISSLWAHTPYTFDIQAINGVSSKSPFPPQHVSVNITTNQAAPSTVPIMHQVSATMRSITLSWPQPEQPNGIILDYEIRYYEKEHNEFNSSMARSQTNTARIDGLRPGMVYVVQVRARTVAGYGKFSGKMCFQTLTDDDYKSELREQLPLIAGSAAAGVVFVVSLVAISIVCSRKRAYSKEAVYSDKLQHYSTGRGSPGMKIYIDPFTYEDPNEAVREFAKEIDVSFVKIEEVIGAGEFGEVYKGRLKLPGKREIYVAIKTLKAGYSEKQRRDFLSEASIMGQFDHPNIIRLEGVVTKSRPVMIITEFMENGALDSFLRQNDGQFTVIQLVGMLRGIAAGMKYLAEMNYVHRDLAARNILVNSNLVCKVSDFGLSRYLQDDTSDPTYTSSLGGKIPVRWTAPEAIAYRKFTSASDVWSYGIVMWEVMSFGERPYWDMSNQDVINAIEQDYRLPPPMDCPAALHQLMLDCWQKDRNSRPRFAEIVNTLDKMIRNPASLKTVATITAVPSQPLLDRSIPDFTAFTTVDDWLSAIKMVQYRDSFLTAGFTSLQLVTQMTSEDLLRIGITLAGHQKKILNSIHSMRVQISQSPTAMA
Sequence of Jak2 (O60674 whole entry, looked up): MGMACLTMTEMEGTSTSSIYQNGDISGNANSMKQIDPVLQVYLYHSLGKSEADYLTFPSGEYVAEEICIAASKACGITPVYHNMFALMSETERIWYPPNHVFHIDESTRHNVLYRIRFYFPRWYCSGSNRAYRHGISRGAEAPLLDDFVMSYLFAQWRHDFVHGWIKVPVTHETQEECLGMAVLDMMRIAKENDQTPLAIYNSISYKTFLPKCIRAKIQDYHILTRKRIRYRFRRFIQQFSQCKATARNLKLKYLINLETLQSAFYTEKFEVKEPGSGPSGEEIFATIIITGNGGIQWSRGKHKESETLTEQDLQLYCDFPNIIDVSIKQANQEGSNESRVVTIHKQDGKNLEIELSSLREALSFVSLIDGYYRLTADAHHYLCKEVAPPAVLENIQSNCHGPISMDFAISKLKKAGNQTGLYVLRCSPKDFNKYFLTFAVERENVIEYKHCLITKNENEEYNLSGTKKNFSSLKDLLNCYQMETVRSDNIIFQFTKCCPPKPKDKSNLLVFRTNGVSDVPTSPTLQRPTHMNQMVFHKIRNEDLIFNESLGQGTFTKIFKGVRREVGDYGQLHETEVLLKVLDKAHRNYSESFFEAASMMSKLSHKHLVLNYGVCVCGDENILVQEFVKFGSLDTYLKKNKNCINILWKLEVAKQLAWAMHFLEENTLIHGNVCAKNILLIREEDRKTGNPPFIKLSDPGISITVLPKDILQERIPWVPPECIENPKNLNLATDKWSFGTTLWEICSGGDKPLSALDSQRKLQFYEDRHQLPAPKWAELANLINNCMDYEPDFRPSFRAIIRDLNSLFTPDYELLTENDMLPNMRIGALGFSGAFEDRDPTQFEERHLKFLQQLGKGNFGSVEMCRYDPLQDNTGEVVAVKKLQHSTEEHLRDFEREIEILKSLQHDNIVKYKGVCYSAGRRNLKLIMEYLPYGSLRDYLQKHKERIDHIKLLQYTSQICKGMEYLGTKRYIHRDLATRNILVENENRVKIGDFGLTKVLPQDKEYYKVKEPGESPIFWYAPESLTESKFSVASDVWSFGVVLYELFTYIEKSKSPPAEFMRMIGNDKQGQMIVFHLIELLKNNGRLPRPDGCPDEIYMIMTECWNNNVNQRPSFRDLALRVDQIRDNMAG
Sequence of Grb2 SH2 (P62993 whole entry, looked up): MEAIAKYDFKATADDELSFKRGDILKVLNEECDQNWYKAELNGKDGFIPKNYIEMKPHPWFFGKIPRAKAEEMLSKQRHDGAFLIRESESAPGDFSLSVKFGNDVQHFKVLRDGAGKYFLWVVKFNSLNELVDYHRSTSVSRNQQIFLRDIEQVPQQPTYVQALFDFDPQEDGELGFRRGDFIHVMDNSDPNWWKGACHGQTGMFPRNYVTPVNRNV

Consider PSARTYCYKQE [KLHDC9_Y175], for which the phosphorylation enrichment in the data set with AncSZ was 1.14; with EPHB1, 0.647; with EPHB2 it was 0.721; with FGFR1, 0.454; in the data set with FGFR3 it was 0.907; in the data set on Fer (mouse), 0.666. Besides, the phosphorylation enrichment with Fes is 1.29; in the data set with Fyn, 0.533; with Hck it was 0.506; with Jak2 it was 0.762; with MERTK, 0.736; in the data set with c-Abl (mouse) it was 0.63. In addition, the phosphorylation enrichment with c-Src was found to be 0.439. Moreover, the figures for the SH2 binding enrichment with Grb2 SH2, with SHP2-C SH2 and with c-Src SH2 were 0.768, 0.815 and 0.643, respectively.

Take PSQRRYLYYYS [PTEN_Y174_V175L]: the phosphorylation enrichment was determined as 1.77 with AncSZ; 0.616 with EPHB1; 0.697 in the data set with EPHB2; 0.873 in the data set with FGFR1; 0.937 in the data set with FGFR3; 0.92 in the data set on Fer (mouse). The phosphorylation enrichment with Fes was determined as 1.4; in the data set with Fyn, 1.04; in the data set with Hck, 0.737; with Jak2, 1.99; with MERTK it was 4.1; with c-Abl (mouse), 0.659. Further, the phosphorylation enrichment with c-Src came out at 0.64. Further, the SH2 binding enrichment with Grb2 SH2 turned out to be 0.84; with SHP2-C SH2, 1.48; with c-Src SH2, 1.06.

Take PTQLPYDHKWK [KIT_Y578_E583K]: the phosphorylation enrichment in the data set with AncSZ turned out to be 0.725; with EPHB1, 0.484; with EPHB2, 0.299; with FGFR1, 0.58; in the data set with FGFR3, 0.439; in the data set on Fer (mouse), 0.478. Also, the phosphorylation enrichment in the data set with Fes was found to be 0.677; in the data set with Fyn, 0.433; with Hck it was 0.397; with Jak2 it was 0.626; in the data set with MERTK, 0.28; with c-Abl (mouse), 0.634. In addition, the phosphorylation enrichment in the data set with c-Src is 0.425. Also, the SH2 binding enrichment with Grb2 SH2 came out at 0.756; with SHP2-C SH2, 0.512; in the data set with c-Src SH2 it was 0.437.

For the sequence PVDVAYRRGYF [PLEC_Y2967], the phosphorylation enrichment came to 0.867 in the data set on AncSZ; 0.385 with EPHB1; 0.577 with EPHB2; 0.565 with FGFR1; 0.588 in the data set with FGFR3; 0.601 in the data set with Fer (mouse). The phosphorylation enrichment is 0.661 in the data set with Fes; 0.642 with Fyn; 0.587 with Hck; 0.556 with Jak2; 0.399 with MERTK; 0.743 in the data set with c-Abl (mouse). In the data set with c-Src, the phosphorylation enrichment was 0.361. The SH2 binding enrichment with Grb2 SH2 was 0.876; with SHP2-C SH2, 0.519; with c-Src SH2 it was 0.456.

Turning to PVGDAYKKKGL [NMNAT1_Y55], the phosphorylation enrichment in the data set with AncSZ was found to be 0.677; in the data set with EPHB1, 0.501; with EPHB2 it was 0.924; in the data set with FGFR1, 0.651; with FGFR3 it was 0.624; in the data set on Fer (mouse), 0.609. The phosphorylation enrichment with Fes is 0.976; with Fyn, 0.522; with Hck it was 0.559; with Jak2 it was 0.787; with MERTK, 0.874; with c-Abl (mouse), 0.574. Further, the phosphorylation enrichment in the data set on c-Src was found to be 0.493. The figures for the SH2 binding enrichment with Grb2 SH2, with SHP2-C SH2 and with c-Src SH2 were 0.831, 0.673 and 0.626, respectively.

Consider QDDFSYPSRQM [LDLR_Y847_G844D_YF], for which the phosphorylation enrichment in the data set on AncSZ was 0.791; with EPHB1 it was 0.549; in the data set with EPHB2, 0.575; with FGFR1, 0.425; in the data set with FGFR3, 0.704; in the data set with Fer (mouse), 0.492. Further, the phosphorylation enrichment with Fes was determined as 0.826; in the data set with Fyn it was 0.414; with Hck it was 0.575; in the data set with Jak2 it was 0.674; in the data set with MERTK, 0.497; in the data set with c-Abl (mouse), 0.609. For the same sequence, the phosphorylation enrichment in the data set on c-Src came out at 0.403. Moreover, the SH2 binding enrichment was 0.851 in the data set with Grb2 SH2, 0.892 with SHP2-C SH2 and 0.54 with c-Src SH2.

As for QDDTVYMGKVT [DCTN1_Y1244], the phosphorylation enrichment in the data set with AncSZ was 1.96; with EPHB1, 0.8; in the data set with EPHB2, 0.918; in the data set with FGFR1, 0.789; with FGFR3 it was 1.17; in the data set with Fer (mouse), 2.72. The phosphorylation enrichment came out at 2.4 with Fes; 0.958 with Fyn; 1.24 with Hck; 1.31 in the data set with Jak2; 0.714 in the data set with MERTK; 1.37 in the data set on c-Abl (mouse). The phosphorylation enrichment in the data set with c-Src turned out to be 0.917. In addition, the SH2 binding enrichment was 1.04 with Grb2 SH2, 0.974 in the data set with SHP2-C SH2 and 0.649 with c-Src SH2.

As to QDEHGYIFRCF [HSPB1_Y133_S135F], the phosphorylation enrichment was determined as 1.75 in the data set with AncSZ; 1.27 in the data set with EPHB1; 0.762 with EPHB2; 0.912 in the data set with FGFR1; 1.31 with FGFR3; 0.793 with Fer (mouse). Also, the phosphorylation enrichment amounted to 2.15 in the data set with Fes; 0.924 in the data set with Fyn; 0.735 with Hck; 1.6 with Jak2; 0.524 with MERTK; 1.19 in the data set on c-Abl (mouse). Moreover, the phosphorylation enrichment with c-Src is 0.661. For the same sequence, the SH2 binding enrichment in the data set with Grb2 SH2 is 0.702; with SHP2-C SH2, 0.469; in the data set with c-Src SH2 it was 0.566.
